Results as given in patent publication US6143507A, “High throughput compatible assay for receptor-TRAF interactions” (Boehringer Ingelheim Pharmaceuticals, Inc., priority 1998, dated 2000).
Residues, ends and D or L forms follow the SMILES beside them.

T1: CD40c-TRAF2 interaction (Homo sapiens, UniProt Q12933)
T1 construct: 1 and 2, respectively; made in house; host or cells: TRAF2(NC)-CA21: Spodoptera frugiperda Sf21 cells (baculovirus); CD40c: Escherichia coli BL21 (DE3)
T1 sequence (Q12933 with tags, fused parts or gaps): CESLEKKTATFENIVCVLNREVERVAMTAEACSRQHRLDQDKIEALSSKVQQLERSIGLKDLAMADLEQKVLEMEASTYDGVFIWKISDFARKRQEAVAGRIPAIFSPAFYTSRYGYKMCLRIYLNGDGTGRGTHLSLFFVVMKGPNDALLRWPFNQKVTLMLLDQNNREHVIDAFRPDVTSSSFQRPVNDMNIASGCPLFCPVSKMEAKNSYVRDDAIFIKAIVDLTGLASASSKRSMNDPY

T2: TRAF2(NC)-CA21 (human)
T2 sequence: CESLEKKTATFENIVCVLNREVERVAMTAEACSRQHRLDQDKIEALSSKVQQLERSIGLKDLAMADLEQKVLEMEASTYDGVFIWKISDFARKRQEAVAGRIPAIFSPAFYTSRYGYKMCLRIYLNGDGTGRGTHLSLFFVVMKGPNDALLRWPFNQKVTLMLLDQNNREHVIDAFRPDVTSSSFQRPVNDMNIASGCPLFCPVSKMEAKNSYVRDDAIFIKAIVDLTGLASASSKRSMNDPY


How the values were obtained:
[1] = biological target: T1, CD40c-TRAF2 interaction; test: Flashplate assay of CD40c-TRAF2 interaction (biotin-CD40c, TRAF2(NC)-CA21, 125I-CA21 Fab); format: binding; conditions: 0.44 μg/ml biotin-CD40c; for IC50: 5 μg/ml TRAF2(NC)-CA21, peptide preincubated with TRAF2(NC)-CA21, read-out: IC50 for inhibition of CD40c-TRAF2 interaction
Experimental: FIG. 2. Peptide antagonists of CD40c-TRAF2 interaction. Streptavidin flashplates were coated with 0.44 μg/ml biotin-CD40c. Stock solutions of peptides were prepared at 1 mg/ml in assay buffer and the pH verified. All peptides were assayed by preincubating with TRAF2(NC)-CA21 at a final peptide concentration of 0.5 mg/ml. Peptides were serially diluted 1.5-fold prior to addition of the TRAF2(NC)-CA21 (5 μg/ml final). Results are means of duplicate points except for the no inhibitor wells (none, closed circles) that are means i standard deviation of 11 replicates. A) Peptides AcPVQET-NH2 (closed squares), AcNTAAPVQET-NH2 (closed triangles), AcNTAAPVQETLH-NH2 (open triangles), CD30.B (AcDVMLSVEEEGKE-NH2, open circles); B) Peptides AcIQET-NH2 (closed squares), AcPIQET-NH2 (closed triangles), AcQEPQEINF-NH2 (open triangles), CD40c (open circles). The maximum signal in B) is less due to a difference in the decay of the ^125 I-Fab.
Significant signal was detectable as low as 0.054 μg/ml biotin-CD40c (FIG. 1). Standard conditions for the assay were selected to be 0.44 μg/ml CD40c and 5 μg/ml TRAF2(NC)-CA21. These conditions provided a signal/noise of eight to ten and a good dynamic range for the detection of inhibitors or enhancers. […] As noted by the manufacturer of the plates, low concentrations of detergents were strong inhibitors of the assay because they removed the streptavidin from the wells. […] The PVQET sequence in the CD40 cytoplasmic domain is essential for signaling through CD40 and is thought to be a core TRAF2 binding sequence. Devergne, O., et al (1996) Mol. Cell. Biol. 16, 7098-7108; Innui, W., et al (1990) Eur. J Immunol. 20, 1747-1753. Therefore several peptides around the PVQET sequence were tested for the ability to compete the CD40c-TRAF2 interaction (FIG. 2A). […] FIG. 2A.
Biotin-CD40c (0.5 μg/ml) was bound to streptavidin-coated 96-well scintillant-embedded plates (Flashplates, New England Nuclear, catalog #15112) overnight at 4° C. in D-PBS, 0.1 mM DTT, 0.01% BSA (100 μl/well). Plates were blocked for 2 hr at room temperature by the addition of Dulbecco's-PBS, 0.1 mM DTT, 1.0% BSA (100 μl/well). In a separate 96-well round bottom polypropylene plate peptide inhibitors were diluted in 40 mM HEPES, pH 7.5, 0.1 M NaCl, 1.0 mM MgCl2, 0.1 mM DTT, 0.01% BSA, and TRAF2(NC)-CA21 was added at a final concentration of 5 μg/ml. Plates were preincubated for 30 min at room temperature. After washing the biotin-CD40c-coated flashplate three times with D-PBS, 0.1 mM DTT, inhibitor-TRAF2(NC)-CA21 mixtures were transferred from the preincubation plate to the washed plate (100 μl/well). Alternatively, after washing the biotin-CD40c-coated flashplates, inhibitors were added directly without TRAF preincubation in a final volume of 50 μl 40 mM HEPES, pH 7.5, 0.1 M NaCl, 1.0 mM MgCl2, 0.1 mM DTT, 0.01% BSA, and 50 μl/well TRAF2(NC)-CA21 (10 μg/ml stock to make a final concentration of 5 μg/ml) was added. Flashplates were incubated for 1 hr at room temperature, washed three times with 40 MM HEPES, pH 7.5, 0.1 M NaCl, 1.0 mM MgCl2, 0.1 mM DTT, and 100 μl/well of [^125 I]CA21 Fab fragment at an adjusted specific activity of 0.08 μCi/well added in […] HEPES, pH […] 7.5, 0.1 M NaCl, 1.0 mM MgCl2, 0.1 mM DTT, 0.1% BSA. After a 1 hr incubation at room temperature plates were sealed and counted in a TopCount scintillation counter (Packard; one minute/well, 2 minute plate delay).

[2] = biological target: T2, TRAF2(NC)-CA21 (human); test: flashplate competition assay, inhibition of TRAF2(NC)-CA21 binding to biotin-CD40c
[3] = system: GST-CD40-TRAF interaction; conditions: cited from earlier work

Row | IC50 [1] [µM] | IC50 [2] [µM] | Molecule | other results
1 | ~90 |  | Ac-PVQET-NH2 [PVQET, AcPVQET-NH2] | ability to inhibit (compete) CD40c-TRAF2 interaction, in words ([1]; 5 μg/ml TRAF2(NC)-CA21, peptides up to 0.5 mg/ml): most potent
2 | ~140 |  | CC[C@H](C)[C@H](NC(C)=O)C(=O)N[C@@H](CCC(N)=O)C(=O)N[C@@H](CCC(=O)O)C(=O)N[C@H](C(N)=O)[C@@H](C)O [IQET, AcIQET-NH2] (Ac-IQET-NH2) | 
3 |  | 50 | CD40c (nonbiotinylated CD40c polypeptide) (from UniProt P25942) (receptor) | 
4 | ~70 |  | Ac-PIQET-NH2 [PIQET, AcPIQET-NH2] | 
5 |  | 140 | Ac-IQET-NH2 [AcIQET-NH2] | fold decrease of inhibitory activity against PIQET [2]: 2 fold
6 |  | 90 | Ac-PVQET-NH2 [AcPVQET-NH2] | 
7 | ~50 |  | CD40c: 62 amino acid human CD40 cytoplasmic domain (amino acids 216-277) expressed in E. coli (protein, also: biotinylated via D-biotinoyl-aminocaproic acid NHS ester, one or two biotin per molecule, sites not given here, 62 amino acid human CD40 cytoplasmic domain (amino acids 216-277) expressed in E. coli) KKVAKKPTNKAPHPKQEPQEINFPDDLPGSNTAAPVQETLHGCQPVTQEDGKESRISVQERQ | ability to compete for GST-CD40-TRAF interaction [3]: weak ability to compete
8 |  | 70 | Ac-PIQET-NH2 [AcPIQET-NH2] | 
